Laboratory results published in FireProtDB (doi:10.1006/jmbi.1996.0075).
“And” between values parts separate entries of the source, which are not always exact repeats. Equal values may be shown once.

Conditions: Equus caballus, 20 °C, CD, reversible: yes; for unfolding free energy: Thermal

Chain of Cytochrome c wild type, P00004 (P00004 whole entry): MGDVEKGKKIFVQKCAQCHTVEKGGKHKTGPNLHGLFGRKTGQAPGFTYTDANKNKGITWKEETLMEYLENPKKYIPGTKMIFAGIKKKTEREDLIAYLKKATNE

Cytochrome c wild type, P00004
denaturant m value (pH 2, GdnHCl, glycine-HCl 5-10 mM, NaClO4 200 mM): 1.58 kcal/mol/M and 1.24 kcal/mol/M and 1.12 kcal/mol/M | unfolding free energy (pH 3.9, Sodium acetate 5-10 mM, NaCl): 0.57 kcal/mol | unfolding free energy (pH 6, Sodium phosphate 5-10 mM, NaCl): 1.39 kcal/mol | denaturant m value (pH 7, GdnHCl, Sodium phosphate 5-10 mM, NaCl): 3.01 kcal/mol/M and 2.1 kcal/mol/M | unfolding free energy (pH 7, Sodium phosphate 5-10 mM, NaCl): 1.7 kcal/mol | denaturant m value (pH 7, Urea, Sodium phosphate 5-10 mM, NaCl): 1.2 kcal/mol/M and 0.86 kcal/mol/M
